Test results published in the supplement of paper PMC7125110.
± gives the standard error. Fewer inactive variants are shown than the library holds.

B1: glmS ribozyme (parent)
chain: AUAAAAGCGCCAGAACUACAGAAAUGUAGUUGACGAGGAGGAGGUUUAUCGAAUUUUCGGCGGAUGCCUCCAAA

Key:
Conditions in all cases: with glucosamine-6-phosphate
glucosamine-6-phosphate [1] = variants of: B1; experiment: self-cleavage kobs at 40 uM GlcN6P; higher = faster cleavage; RNA array
Outline: (§1)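 Glucosamine-6-phosphate (40 μM to 10 mM) in HEPES/KCl/Mg(OAc)2 buffer was flowed over sequenced MiSeq chips, and tiles were imaged over ~14 h. Barcoded ribozyme variants there had been transcribed in situ by E. coli RNA polymerase and were tracked through a hybridised Cy3 probe at 37 °C. One- or two-exponential decay fits to per-tile medians, normalised to baseline and to non-cleaving reference variants, gave kobs. kcat and KM came from weighted Michaelis–Menten fits across concentrations.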

glucosamine-6-phosphate [2] = variants of: B1; experiment: self-cleavage kobs at 10000 uM GlcN6P; higher = faster cleavage; RNA array
Outline: as §1

glucosamine-6-phosphate [3] = variants of: B1; experiment: self-cleavage kobs at 160 uM GlcN6P; higher = faster cleavage; RNA array
Outline: as §1

glucosamine-6-phosphate [4] = variants of: B1; experiment: self-cleavage kobs at 640 uM GlcN6P; higher = faster cleavage; RNA array
Outline: as §1

glucosamine-6-phosphate [5] = variants of: B1; experiment: self-cleavage kobs at 2500 uM GlcN6P; higher = faster cleavage; RNA array
Outline: as §1

Row | Variant | self-cleavage kobs at 40 uM GlcN6P (glucosamine-6-phosphate [1]) | self-cleavage kobs at 10000 uM GlcN6P (glucosamine-6-phosphate [2]) | self-cleavage kobs at 160 uM GlcN6P (glucosamine-6-phosphate [3]) | self-cleavage kobs at 640 uM GlcN6P (glucosamine-6-phosphate [4]) | self-cleavage kobs at 2500 uM GlcN6P (glucosamine-6-phosphate [5])
1 | AUAAAAGCGCCAGAACUACAGAAAUGUAGUUGACGAGUAGGAGGUUUAUUCAAUUUUCGGCGGAUGCCACCAAA [G38U C50U G51C U69A] | 8.35e-05 ± 3.9e-05 s⁻¹ |  |  |  | 
2 | AUAAAAGCGCCAGAACUACAGAAAUGUAGUUGACGAGAAGGAGCUUAAUCGAAUUUUCGGCGGAUGCCUCCAAA [G38A G44C U47A] | < 1e-05 s⁻¹ | < 1e-05 s⁻¹ |  |  | 
3 | AUAAAAGCGCCAGAACUACAGAAAUGUAGUUGACGAGUAGGCGGUUUAUCGAUUUUUCGGCGGAUGCCUCCAAA [G38U A42C A53U] | < 1e-05 s⁻¹ |  |  |  | 
4 | AUAAAAGCGCCAGAACUACAGAAAUGUAGUUGACGAGUAGGAGGUUUAUCGUAUUUGCGGCGGGUGCCUCCAAA [G38U A52U U57G A64G] | < 1e-05 s⁻¹ | < 1e-05 s⁻¹ |  |  | 
5 | AUAAAAGCGCCAGAACUACAGAAAUGUAGUUGACGAGCAGGAGGUUUAUCGAAUUUUCGGCGGAGGCCUCCAAA [G38C U65G] | < 1e-05 s⁻¹ |  | < 1e-05 s⁻¹ | < 1e-05 s⁻¹ | 
6 | AUAAAAGCGCCAGAACUACAGAAAUGUAGUUGACGAGCAGGAGGUUUAUCGAAUUUUCGGCGGACGCCUCCAAA [G38C U65C] | < 1e-05 s⁻¹ | < 1e-05 s⁻¹ | < 1e-05 s⁻¹ | < 1e-05 s⁻¹ | 
7 | AUAAAAGCGCCAGAACUACAGAAAUGUAGUUGACGAGCAGGAGGUUUAUCGAAUUCUCGGCGGAUGCCUCCAAA [G38C U56C] | < 1e-05 s⁻¹ | < 1e-05 s⁻¹ | < 1e-05 s⁻¹ |  | < 1e-05 s⁻¹
8 | AUAAAAGCGCCAGAACUACAGAAAUGUAGUUGACGAGUAUGAGGUUUAUCGAAUUUUCGGCGGAUGCCUCCAAA [G38U G40U] | < 1e-05 s⁻¹ | < 1e-05 s⁻¹ |  |  | 
9 | AUAAAAGCGCCAGAACUACAGAAAUGUAGUUGACGAGCAGGAGGUUUAUCGAAUAUUCGGCGUAUGCCUCCAAA [G38C U55A G63U] | < 1e-05 s⁻¹ |  |  | < 1e-05 s⁻¹ | < 1e-05 s⁻¹
10 | AUAAAAGCGCCAGAACUACAGAAAUGUAGUUGACGAGCAGGAGUUUUAUCGAAUUUUUGGCGGUUGCCUCCAAA [G38C G44U C58U A64U] | < 1e-05 s⁻¹ | < 1e-05 s⁻¹ |  |  | 
11 | AUAAAAGCGCCAGAACUACAGAAAUGUAGUUGACGAGUAGCAAGUUUAUCGAAUUUUCGGCGGAUGCCUCCAAA [G38U G41C G43A] | < 1e-05 s⁻¹ |  |  |  | 
12 | AUAAAAGCGCCAGAACUACAGAAAUGUAGUUGACGAGAAGGAGGCUUAUCGAAUUUUCGGCGGAUGCCUCCAAA [G38A U45C] | < 1e-05 s⁻¹ | < 1e-05 s⁻¹ | < 1e-05 s⁻¹ | < 1e-05 s⁻¹ | < 1e-05 s⁻¹
13 | AUAAAAGCGCCAGAACUACAGAAAUGUAGUUGACGAGUAGGACGUUCAUCGAUUAUUCCGCGGAUGCCUCCAAA [G38U G43C U47C A53U U55A G59C] | < 1e-05 s⁻¹ |  |  |  | 
14 | AUAAAAGCGCCAGAACUACAGAAAUGUAGUUGACGAGAAGGAGGUCUAUCGACCUUUCGGCGGAUGCAUCCAAA [G38A U46C A53C U54C C68A] | < 1e-05 s⁻¹ | < 1e-05 s⁻¹ |  |  | 
15 | AUAAAAGCGCCAGAACUACAGAAAUGUAGUUGACGAGAAGGAGGUUUAUCGAAUUUGCGGCGGAUGCCUCCAAA [G38A U57G] | < 1e-05 s⁻¹ | < 1e-05 s⁻¹ |  | < 1e-05 s⁻¹ | < 1e-05 s⁻¹
16 | AUAAAAGCGCCAGAACUACAGAAAUGUAGUUGACGAGUAGGAGGUUUAUCGAAUUUUCGGAGGAUGUCUCCAAA [G38U C61A C67U] | 8.86e-05 ± 3e-05 s⁻¹ | 8.02e-05 ± 2.6e-05 s⁻¹ |  |  | 
17 | AUAAAAGCGCCAGAACUACAGAAAUGUAGUUGACGAGUAGGAGGUUUAUCGACUUUUCGGCGGAUGCCUCCAAA [G38U A53C] | < 1e-05 s⁻¹ |  | < 1e-05 s⁻¹ | < 1e-05 s⁻¹ | < 1e-05 s⁻¹
18 | AUAAAAGCGCCAGAACUACAGAAAUGUAGUUGACGAGAAGGAGGUUUACCGAAUUUUCGGCGGAUGCCUCCAAA [G38A U49C] | < 1e-05 s⁻¹ |  |  |  | < 1e-05 s⁻¹
19 | AUAAAAGCGCCAGAACUACAGAAAUGUAGUUGACGAGAAGGAUGUUUAUCGAAUUUUCGGCGGAUGCCUCCAAA [G38A G43U] | < 1e-05 s⁻¹ | < 1e-05 s⁻¹ | < 1e-05 s⁻¹ | < 1e-05 s⁻¹ | 
20 | AUAAAAGCGCCAGAACUACAGAAAUGUAGUUGACGAGUAGGAGGUUUAUCCAAUUUUCGGCGGAUGCCUCCAAA [G38U G51C] | < 1e-05 s⁻¹ |  |  | < 1e-05 s⁻¹ | < 1e-05 s⁻¹
21 | AUAAAAGCGCCAGAACUACAGAAAUGUAGUUGACGAGUAGGAGGUUUAUCGAAUUUUCCGCGGAUGCCUCCAAA [G38U G59C] | < 1e-05 s⁻¹ |  |  | < 1e-05 s⁻¹ | < 1e-05 s⁻¹
22 | AUAAAAGCGCCAGAACUACAGAAAUGUAGUUGACGAGUAGGAGGUUUCUCGAAUUUUCGGCGGAUGCCUCGAAA [G38U A48C C71G] | < 1e-05 s⁻¹ | < 1e-05 s⁻¹ |  |  | 
23 | AUAAAAGCGCCAGAACUACAGAAAUGUAGUUGACGAGCAGGAGGUUUAUCGAAUUUUUGGCGGAUGCCUCCAAA [G38C C58U] | < 1e-05 s⁻¹ | < 1e-05 s⁻¹ |  | < 1e-05 s⁻¹ | < 1e-05 s⁻¹
24 | AUAAAAGCGCCAGAACUACAGAAAUGUAGUUGACGAGUAGGUGGUUUAACGAAUUUUCGUCGGAUGCCUCCAAA [G38U A42U U49A G60U] | < 1e-05 s⁻¹ | < 1e-05 s⁻¹ |  |  | 
25 | AUAAAAGCGCCAGAACUACAGAAAUGUAGUUGACGAGCAGAAGGUUUAUCGAAUUUUCGGCGGAUGCCUCCAAA [G38C G41A] | < 1e-05 s⁻¹ | < 1e-05 s⁻¹ | < 1e-05 s⁻¹ | < 1e-05 s⁻¹ | < 1e-05 s⁻¹
26 | AUAAAAGCGCCAGAACUACAGAAAUGUAGUUGACGAGUAGCAGGUUUAUCGAAUUUUCGGCGGAUGCCUCCAAA [G38U G41C] | < 1e-05 s⁻¹ | < 1e-05 s⁻¹ | < 1e-05 s⁻¹ | < 1e-05 s⁻¹ | < 1e-05 s⁻¹
27 | AUAAAAGCGCCAGAACUACAGAAAUGUAGUUGACGAGUAGGAGGUUUAUAGAAUUUUCGGCGGAUGGCUCCAAA [G38U C50A C67G] | 8.67e-05 ± 3.1e-05 s⁻¹ | 0.000115 ± 3.2e-05 s⁻¹ |  |  | 
